Experimental data as given in patent US20050287164A1 (INHIBITEX, published 2005).

Biological target: T1, Clf40 (A domain of ClfA, AA 40-559, recombinant, six-histidine fusion) (Staphylococcus aureus strain Newman, UniProt Q53653 40-559)
T1 construct: also called ClfA 40
T1 sequence: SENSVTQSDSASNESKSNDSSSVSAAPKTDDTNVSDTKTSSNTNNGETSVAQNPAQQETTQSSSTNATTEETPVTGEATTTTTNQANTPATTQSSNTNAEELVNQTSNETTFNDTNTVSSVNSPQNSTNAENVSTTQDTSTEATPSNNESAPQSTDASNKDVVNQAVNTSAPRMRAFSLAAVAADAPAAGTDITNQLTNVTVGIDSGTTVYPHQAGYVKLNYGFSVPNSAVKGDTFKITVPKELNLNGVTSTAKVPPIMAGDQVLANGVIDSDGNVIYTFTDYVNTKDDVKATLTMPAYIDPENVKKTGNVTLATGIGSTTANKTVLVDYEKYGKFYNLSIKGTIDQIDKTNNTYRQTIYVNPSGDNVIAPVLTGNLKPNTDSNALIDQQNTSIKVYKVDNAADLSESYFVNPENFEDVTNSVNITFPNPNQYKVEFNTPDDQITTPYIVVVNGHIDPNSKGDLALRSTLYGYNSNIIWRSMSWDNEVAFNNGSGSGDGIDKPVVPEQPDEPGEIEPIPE
Test: Biacore 3000, Mab captured by rabbit anti-mouse Fc, Clf protein in flow

B1: Monoclonal antibody 12-9 (antibody, V domains shown)
VH: QVQLKESGPGLVAPSQSLSITCAISGFSLSRYSVHWVRQPPGKGLEWLGMIWGGGNTDYNSALKSRLSISKDNSKSQVFLKMNSLQTDDTAMYYCARKGEFYYGYDGFVYWGQGTLVTVSA
VL: NIMMTQSPSSLAVSAGEKVTMSCKSSQSVLYSSNQKNYLAWYQQKPGQSPKLLIYWASTRESGVPDRFTGSGSGTDFTLTISSVQAEDLAVYYCHQYLSSYTFGGGTKLEIK
notes: also called F12-9; Mab 12-9
- kon: 774000 M⁻¹ s⁻¹
